The target in test [1] is T1, full-length human KDR on CHO-KDR cells (human, UniProt P35968 20-1356).
T1 construct: whole, on cells; stably transfected CHO-K1 cells
As to the kind of experiment: flow cytometry on CHO-KDR cells, His6-tagged protein, anti-His6 MAb and Alexa Fluor 488 anti-mouse antibody. The procedure:
Binding of fibronectin-based scaffold protein to cell-surface KDR and Flk-1 was analyzed simultaneously on VEGF-R2-expressing and control cells by flow cytometry. CHO-pcDNA3 cells (control) were released from their dishes with trypsin-EDTA, washed in Dulbecco's PBS without calcium and magnesium (D-PBS⁻; Invitrogen), and stained for 30 minutes at 37° C. with 1.5 μM CMTMR (5-(and-6)-(((4-chloromethyl)benzoyl)amino)-tetramethylrhodamine) (Molecular Probes). The cells were washed in D-PBS⁻ and incubated for a further 30 minutes at 37° C., and then resuspended in blocking buffer (D-PBS710% fetal bovine serum) on ice. CHO-KDR or CHO-Flk cells were treated identically except that CMTMR was omitted. […] For cells treated with an anti-KDR mouse monoclonal antibody (Accurate Chemical, Westbury, N.Y.) or an anti-flk-1 goat polyclonal antibody (R&D Systems), the anti-His₆ step was omitted, and antibody binding was detected with the species-appropriate Alexa Fluor 488 conjugated secondary antibody (Molecular Probes). Following staining, cells were resuspended in 200 μl/well D-PBS⁻/1% FBS/1 μg/ml 7-aminoactinomycin D (7-AAD; Molecular Probes) and analyzed by flow cytometry on a FACSCalibur (Becton Dickinson, San Jose, Calif.) equipped with a […]. […]

Test [2] addresses T2, human vascular endothelial growth factor receptor-2 Fc chimera (KDR-Fc) (human, UniProt P35968 20-764).
T2 construct: range 1-764; also called human VEGF-R2-Fc; hKDR; not shown: human IgG1 Fc
As to the kind of experiment: BIAcore, 20 nM KDR-Fc over immobilized VEGF165 in the presence of the soluble binder; blocked ligand VEGF165. The procedure: For inhibition experiments, human VEGF₁₆₅ was immobilized on a surface of CM-5 chip and KDR-Fc was injected at a concentration of 20 nM in the presence of different concentrations of soluble binding proteins ranging from 0 to 100 nM. IC₅₀ was determined at a concentration when only 50% of KDR-Fc binding to the chip was observed.
(In general: Surface plasmon resonance follows binding to a sensor surface in real time, without labels.)

T1 sequence (P35968 20-1356): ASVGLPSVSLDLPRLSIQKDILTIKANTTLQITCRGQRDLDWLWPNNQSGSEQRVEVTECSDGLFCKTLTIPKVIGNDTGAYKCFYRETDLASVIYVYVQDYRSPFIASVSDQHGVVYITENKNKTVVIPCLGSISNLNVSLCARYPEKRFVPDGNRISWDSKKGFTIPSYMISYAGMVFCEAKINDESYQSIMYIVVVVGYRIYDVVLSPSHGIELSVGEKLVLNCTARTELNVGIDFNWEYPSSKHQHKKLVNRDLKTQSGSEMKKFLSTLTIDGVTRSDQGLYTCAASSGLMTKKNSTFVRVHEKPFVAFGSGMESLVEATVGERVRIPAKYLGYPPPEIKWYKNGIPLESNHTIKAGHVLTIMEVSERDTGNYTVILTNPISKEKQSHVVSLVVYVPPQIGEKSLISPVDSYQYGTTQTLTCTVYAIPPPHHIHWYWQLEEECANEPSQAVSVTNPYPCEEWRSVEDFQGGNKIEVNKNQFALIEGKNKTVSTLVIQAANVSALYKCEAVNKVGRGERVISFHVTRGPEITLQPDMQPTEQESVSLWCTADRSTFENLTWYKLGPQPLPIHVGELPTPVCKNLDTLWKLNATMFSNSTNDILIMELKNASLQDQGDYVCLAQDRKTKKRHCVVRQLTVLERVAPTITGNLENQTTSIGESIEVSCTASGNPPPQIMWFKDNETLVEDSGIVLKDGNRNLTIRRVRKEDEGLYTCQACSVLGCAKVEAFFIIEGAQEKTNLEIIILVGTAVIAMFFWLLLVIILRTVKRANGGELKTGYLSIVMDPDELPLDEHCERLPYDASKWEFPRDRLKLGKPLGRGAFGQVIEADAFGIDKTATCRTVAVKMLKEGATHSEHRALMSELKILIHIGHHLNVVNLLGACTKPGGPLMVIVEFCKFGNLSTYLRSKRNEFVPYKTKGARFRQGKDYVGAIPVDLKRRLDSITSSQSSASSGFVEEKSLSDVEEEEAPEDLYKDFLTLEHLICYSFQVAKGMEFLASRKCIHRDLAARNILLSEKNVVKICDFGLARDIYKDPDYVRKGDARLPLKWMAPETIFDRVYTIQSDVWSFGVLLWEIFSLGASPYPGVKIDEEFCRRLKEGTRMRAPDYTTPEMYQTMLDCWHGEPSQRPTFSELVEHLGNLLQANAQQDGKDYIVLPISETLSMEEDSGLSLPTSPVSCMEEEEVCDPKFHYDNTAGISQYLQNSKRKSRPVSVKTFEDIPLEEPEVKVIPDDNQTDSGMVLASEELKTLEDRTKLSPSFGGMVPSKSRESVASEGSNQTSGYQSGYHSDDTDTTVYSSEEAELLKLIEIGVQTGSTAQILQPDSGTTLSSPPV
T2 sequence (P35968 20-764 limits assumed, change not shown, form in doubt): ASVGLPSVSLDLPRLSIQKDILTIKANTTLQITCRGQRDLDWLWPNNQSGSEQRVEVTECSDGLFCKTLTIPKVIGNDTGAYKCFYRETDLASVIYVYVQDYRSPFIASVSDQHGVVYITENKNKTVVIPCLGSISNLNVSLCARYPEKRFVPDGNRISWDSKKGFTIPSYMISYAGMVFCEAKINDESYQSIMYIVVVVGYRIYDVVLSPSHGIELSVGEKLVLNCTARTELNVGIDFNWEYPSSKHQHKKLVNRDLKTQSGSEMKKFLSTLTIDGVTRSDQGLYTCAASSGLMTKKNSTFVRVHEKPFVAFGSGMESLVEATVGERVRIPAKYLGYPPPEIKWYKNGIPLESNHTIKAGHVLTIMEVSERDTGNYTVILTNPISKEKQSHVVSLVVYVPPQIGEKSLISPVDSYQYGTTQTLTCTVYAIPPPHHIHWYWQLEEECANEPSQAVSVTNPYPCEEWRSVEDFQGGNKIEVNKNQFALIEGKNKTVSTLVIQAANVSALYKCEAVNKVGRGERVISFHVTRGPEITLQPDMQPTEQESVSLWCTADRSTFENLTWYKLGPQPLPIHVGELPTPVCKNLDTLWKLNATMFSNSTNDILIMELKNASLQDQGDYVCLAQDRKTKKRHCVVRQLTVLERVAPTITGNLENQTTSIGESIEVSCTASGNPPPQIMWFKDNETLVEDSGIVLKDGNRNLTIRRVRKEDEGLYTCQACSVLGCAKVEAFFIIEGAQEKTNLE

B1: WT fibronectin-based scaffold protein (wild-type 10Fn3), E. coli, His6 (other)
chain: VSDVPRDLEVVAATPTSLLISWDAPAVTVRYYRITYGETGGNSPVQEFTVPGSKSTATISGLKPGVDYTITGYAVTGRGDSPASSKPISINYRTEIDKPSQHHHHHH
notes: E. coli-expressed soluble form; N-terminal Met not described
Take B1: the binding result in test [1] was “no binding (tested: log[M] about -6.9 (about 1e-7 M))”.

B2: VR28 (designed binder)
chain: VSDVPRDLEVVAATPTSLLISWRHPHFPTRYYRITYGETGGNSPVQEFTVPLQPPTATISGLKPGVDYTITGYAVTVAQNDHELITPISINYRT
notes: 10Fn3 variant, WT N-terminus; also called VR28 (I69T)
As for B2, the “IC50 (read off the curve)” value in test [2] was approximately 20 nM.

The values above are taken from patent US20100310549A1 (Bristol-Myers Squibb, published 2010).
